Assay results as given in US20230355720A1, “PHARMACEUTICAL COMPOSITION FOR PREVENTING OR TREATING BONE DISEASES, COMPRISING TRIPLE AGONIST OR CONJUGATE THEREOF HAVING ACTIVITY WITH RESPECT TO ALL OF GLUCAGON, GLP-1 AND GLP RECEPTORS” (HANMI PHARM. CO., LTD., priority 2020, published 2023).
Bridge positions count the residues as written; N and C are the ends. Square brackets hold non-standard residues; d marks the D form. Ends that are not written are not given here. * marks the point of attachment. Acetyl(2-(4-imidazolyl)) = O=C(Cc1c[nH]cn1)*; Aib = CC(C)(N)C(=O)O

What was measured:
Test in all cases: cell-based or functional assay
human GLP-1 receptor = human GLP-1 receptor (human, UniProt P43220 24-463)
human GIP receptor = target: T1, human GIP receptor (human, UniProt P48546 22-466)
T1 sequence (looked up): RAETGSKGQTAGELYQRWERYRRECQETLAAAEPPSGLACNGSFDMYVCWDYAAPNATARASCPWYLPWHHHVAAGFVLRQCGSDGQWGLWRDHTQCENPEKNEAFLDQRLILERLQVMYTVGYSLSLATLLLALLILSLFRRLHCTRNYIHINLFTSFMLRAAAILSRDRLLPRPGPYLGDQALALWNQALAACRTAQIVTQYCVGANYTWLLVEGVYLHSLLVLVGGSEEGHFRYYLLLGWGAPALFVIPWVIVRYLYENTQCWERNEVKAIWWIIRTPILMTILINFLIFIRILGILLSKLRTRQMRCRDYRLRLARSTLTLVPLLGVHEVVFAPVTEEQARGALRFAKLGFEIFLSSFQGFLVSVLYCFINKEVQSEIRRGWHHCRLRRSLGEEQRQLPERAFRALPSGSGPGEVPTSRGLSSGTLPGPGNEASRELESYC

human GCG receptor = human GCG receptor (human, UniProt P47871 26-477)
Chain of human GCG receptor (P47871 26-477): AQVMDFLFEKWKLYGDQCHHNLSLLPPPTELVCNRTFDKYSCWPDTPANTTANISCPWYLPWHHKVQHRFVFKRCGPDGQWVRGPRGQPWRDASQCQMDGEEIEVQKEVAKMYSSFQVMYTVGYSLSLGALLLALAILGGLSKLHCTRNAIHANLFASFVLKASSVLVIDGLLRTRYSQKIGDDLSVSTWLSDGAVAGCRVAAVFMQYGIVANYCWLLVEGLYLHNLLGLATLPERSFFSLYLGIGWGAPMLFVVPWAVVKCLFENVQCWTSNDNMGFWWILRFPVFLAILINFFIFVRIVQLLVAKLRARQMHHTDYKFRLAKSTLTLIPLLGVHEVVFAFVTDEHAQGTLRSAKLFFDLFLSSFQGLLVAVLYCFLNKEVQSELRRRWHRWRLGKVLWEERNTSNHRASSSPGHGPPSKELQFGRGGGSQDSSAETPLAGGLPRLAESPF

H[Aib]QGTFTSDVSKYLDGQAAQEFVAWLLAGC [triple agonist of SEQ ID NO: 9]
In vitro activity (%) compared with native peptide, vs GLP-1 (human GLP-1 receptor): 32.1%
In vitro activity (%) compared with native peptide, vs GIP (human GIP receptor): < 0.1%
In vitro activity (%) compared with native peptide, vs Glucagon (human GCG receptor): 0.13%

[Acetyl(2-(4-imidazolyl))][Aib]QGTFTSDYSIAMDEIHQKDFVNWLLAQC (bridge 16-20; not fully specified) [triple agonist of SEQ ID NO: 85]
In vitro activity (%) compared with native peptide, vs GLP-1 (human GLP-1 receptor): 4.3%
In vitro activity (%) compared with native peptide, vs GIP (human GIP receptor): 0.3%
In vitro activity (%) compared with native peptide, vs Glucagon (human GCG receptor): < 0.1%

B1: triple agonist of SEQ ID NO: 86 (peptide)
peptide: {Acetyl(2-(4-imidazolyl))}-[Aib]QGTFTSDYSKYLDEKRQKEFVNWLLAQC
modifications: bridge 15-19; numbers in words are those of the source; also: ring between positions 16 and 20, type not given here
In vitro activity (%) compared with native peptide, vs GLP-1 (human GLP-1 receptor): 28.4%
In vitro activity (%) compared with native peptide, vs GIP (human GIP receptor): 0.2%
In vitro activity (%) compared with native peptide, vs Glucagon (human GCG receptor): 0.4%

B2: triple agonist of SEQ ID NO: 87 (peptide)
peptide: {Acetyl(2-(4-imidazolyl))}-[Aib]QGTFTSDYSIAMDEIHQKDFVNWLLNTC
modifications: bridge 15-19; numbers in words are those of the source; also: ring between positions 16 and 20, type not given here
In vitro activity (%) compared with native peptide, vs GLP-1 (human GLP-1 receptor): 0.9%
In vitro activity (%) compared with native peptide, vs GIP (human GIP receptor): < 0.1%
In vitro activity (%) compared with native peptide, vs Glucagon (human GCG receptor): < 0.1%

B3: triple agonist of SEQ ID NO: 88 (peptide)
peptide: {Acetyl(2-(4-imidazolyl))}-[Aib]QGTFTSDYSKYLDEKRQKEFVQWLLNTKC
modifications: bridge 15-19; numbers in words are those of the source; also: ring between positions 16 and 20, type not given here
In vitro activity (%) compared with native peptide, vs GLP-1 (human GLP-1 receptor): 9.6%
In vitro activity (%) compared with native peptide, vs GIP (human GIP receptor): < 0.1%
In vitro activity (%) compared with native peptide, vs Glucagon (human GCG receptor): 0.3%

B4: triple agonist of SEQ ID NO: 89 (peptide)
peptide: {Acetyl(2-(4-imidazolyl))}-[Aib]QGTFTSDYSKYLDEKRQKEFVQWLLDTKC
modifications: bridge 15-19; numbers in words are those of the source; also: ring between positions 16 and 20, type not given here
In vitro activity (%) compared with native peptide, vs GLP-1 (human GLP-1 receptor): 7.1%
In vitro activity (%) compared with native peptide, vs GIP (human GIP receptor): < 0.1%
In vitro activity (%) compared with native peptide, vs Glucagon (human GCG receptor): 0.7%

[Acetyl(2-(4-imidazolyl))][Aib]EGTFTSDYSIAMDEIHQKDFVNWLLAQKC (bridge 16-20; not fully specified) [triple agonist of SEQ ID NO: 90]
In vitro activity (%) compared with native peptide, vs GLP-1 (human GLP-1 receptor): 7.4%
In vitro activity (%) compared with native peptide, vs GIP (human GIP receptor): < 0.1%
In vitro activity (%) compared with native peptide, vs Glucagon (human GCG receptor): < 0.1%

B5: triple agonist of SEQ ID NO: 91 (peptide)
peptide: {Acetyl(2-(4-imidazolyl))}-[Aib]EGTFTSDYSIAMDEIHQKDFVDWLLAEKC
modifications: bridge 15-19; numbers in words are those of the source; also: ring between positions 16 and 20, type not given here
In vitro activity (%) compared with native peptide, vs GLP-1 (human GLP-1 receptor): 31.9%
In vitro activity (%) compared with native peptide, vs GIP (human GIP receptor): 0.3%
In vitro activity (%) compared with native peptide, vs Glucagon (human GCG receptor): 16.8%

[Acetyl(2-(4-imidazolyl))][Aib]QGTFTSDYSIAMDEIHQKDFVNWLLAQKC (bridge 16-20; not fully specified) [triple agonist of SEQ ID NO: 92]
In vitro activity (%) compared with native peptide, vs GLP-1 (human GLP-1 receptor): 0.8%
In vitro activity (%) compared with native peptide, vs GIP (human GIP receptor): 0.4%
In vitro activity (%) compared with native peptide, vs Glucagon (human GCG receptor): < 0.1%

B6: triple agonist of SEQ ID NO: 93 (peptide)
peptide: {Acetyl(2-(4-imidazolyl))}-[Aib]QGTFTSDYSKYLDEKRQKEFVNWLLAQKC
modifications: bridge 15-19; numbers in words are those of the source; also: ring between positions 16 and 20, type not given here
In vitro activity (%) compared with native peptide, vs GLP-1 (human GLP-1 receptor): 5.7%
In vitro activity (%) compared with native peptide, vs GIP (human GIP receptor): 0.7%
In vitro activity (%) compared with native peptide, vs Glucagon (human GCG receptor): 0.3%

B7: triple agonist of SEQ ID NO: 94 (peptide)
peptide: {Acetyl(2-(4-imidazolyl))}-[Aib]QGTFTSDYSIAMDEIHQKDFVNWLLNTKC
modifications: bridge 15-19; numbers in words are those of the source; also: ring between positions 16 and 20, type not given here
In vitro activity (%) compared with native peptide, vs GLP-1 (human GLP-1 receptor): 0.5%
In vitro activity (%) compared with native peptide, vs GIP (human GIP receptor): < 0.1%
In vitro activity (%) compared with native peptide, vs Glucagon (human GCG receptor): < 0.1%

H[Aib]QGTFTSDVSKYLDGQAAQEFVAWLLAGGGPSSGAPPPSC (not fully specified) [triple agonist of SEQ ID NO: 10]
In vitro activity (%) compared with native peptide, vs GLP-1 (human GLP-1 receptor): 46%
In vitro activity (%) compared with native peptide, vs GIP (human GIP receptor): < 0.1%
In vitro activity (%) compared with native peptide, vs Glucagon (human GCG receptor): < 0.1%

Y[Aib]QGTFTSDYSKYLDEKRAKEFVQWLLCHHPSSGQPPPS (bridge 16-20) [triple agonist of SEQ ID NO: 95]
In vitro activity (%) compared with native peptide, vs GLP-1 (human GLP-1 receptor): 2.1%
In vitro activity (%) compared with native peptide, vs GIP (human GIP receptor): < 0.1%
In vitro activity (%) compared with native peptide, vs Glucagon (human GCG receptor): 0.4%

Y[Aib]QGTFTSDYSKYLDEKRAKEFVQWLLDHCPSSGQPPPS (bridge 16-20) [triple agonist of SEQ ID NO: 96]
In vitro activity (%) compared with native peptide, vs GLP-1 (human GLP-1 receptor): 34.4%
In vitro activity (%) compared with native peptide, vs GIP (human GIP receptor): 5.2%
In vitro activity (%) compared with native peptide, vs Glucagon (human GCG receptor): 195%

Y[Aib]QGTFTSDYSKYLDEKRAKEFVQWLLDCHPSSGQPPPS (bridge 16-20) [triple agonist of SEQ ID NO: 97]
In vitro activity (%) compared with native peptide, vs GLP-1 (human GLP-1 receptor): 10.5%
In vitro activity (%) compared with native peptide, vs GIP (human GIP receptor): 2.6%
In vitro activity (%) compared with native peptide, vs Glucagon (human GCG receptor): 62.8%

Y[Aib]QGTFTSDYSKALDEKAAKEFVNWLLDHHPSSGQPPPSC (bridge 16-20) [triple agonist of SEQ ID NO: 98]
In vitro activity (%) compared with native peptide, vs GLP-1 (human GLP-1 receptor): 28.1%
In vitro activity (%) compared with native peptide, vs GIP (human GIP receptor): 47.1%
In vitro activity (%) compared with native peptide, vs Glucagon (human GCG receptor): 8.2%

Y[Aib]QGTFTSDYSKALDEKAAKDFVNWLLDHHPSSGQPPPSC (bridge 16-20) [triple agonist of SEQ ID NO: 99]
In vitro activity (%) compared with native peptide, vs GLP-1 (human GLP-1 receptor): 20.9%
In vitro activity (%) compared with native peptide, vs GIP (human GIP receptor): 57.7%
In vitro activity (%) compared with native peptide, vs Glucagon (human GCG receptor): 14.9%

Y[Aib]QGTFTSDYSKALDEKAAKEFVQWLLDQHPSSGQPPPSC (bridge 16-20) [triple agonist of SEQ ID NO: 100]
In vitro activity (%) compared with native peptide, vs GLP-1 (human GLP-1 receptor): 42.2%
In vitro activity (%) compared with native peptide, vs GIP (human GIP receptor): 118%
In vitro activity (%) compared with native peptide, vs Glucagon (human GCG receptor): 12.7%

Y[Aib]QGTFTSDYSKALDEKAAKEFVNWLLDQHPSSGQPPPSC (bridge 16-20) [triple agonist of SEQ ID NO: 101]
In vitro activity (%) compared with native peptide, vs GLP-1 (human GLP-1 receptor): 23.2%
In vitro activity (%) compared with native peptide, vs GIP (human GIP receptor): 40.1%
In vitro activity (%) compared with native peptide, vs Glucagon (human GCG receptor): 13.9%

Y[Aib]QGTFTSDYSKALDEKAAKDFVNWLLDQHPSSGQPPPSC (bridge 16-20) [triple agonist of SEQ ID NO: 102]
In vitro activity (%) compared with native peptide, vs GLP-1 (human GLP-1 receptor): 23.3%
In vitro activity (%) compared with native peptide, vs GIP (human GIP receptor): 58%
In vitro activity (%) compared with native peptide, vs Glucagon (human GCG receptor): 29.5%

[Acetyl(2-(4-imidazolyl))]GEGTFTSDLSKYLDSRRQQLFVQWLKAGGPSSGAPPPSHG (not fully specified) [triple agonist of SEQ ID NO: 11]
In vitro activity (%) compared with native peptide, vs GLP-1 (human GLP-1 receptor): 1.4%
In vitro activity (%) compared with native peptide, vs GIP (human GIP receptor): < 0.1%
In vitro activity (%) compared with native peptide, vs Glucagon (human GCG receptor): < 0.1%

[Acetyl(2-(4-imidazolyl))]GEGTFISDLSKYMDEQAVQLFVEWLMAGGPSSGAPPPSHG (not fully specified) [triple agonist of SEQ ID NO: 12]
In vitro activity (%) compared with native peptide, vs GLP-1 (human GLP-1 receptor): 0.4%
In vitro activity (%) compared with native peptide, vs GIP (human GIP receptor): < 0.1%
In vitro activity (%) compared with native peptide, vs Glucagon (human GCG receptor): < 0.1%

[Acetyl(2-(4-imidazolyl))]GEGTFISDYSIQLDEIAVQDFVEWLLAQKPSSGAPPPSHG [triple agonist of SEQ ID NO: 13]
In vitro activity (%) compared with native peptide, vs GLP-1 (human GLP-1 receptor): < 0.1%
In vitro activity (%) compared with native peptide, vs GIP (human GIP receptor): < 0.1%
In vitro activity (%) compared with native peptide, vs Glucagon (human GCG receptor): < 0.1%

H[Aib]QGTFTSDVSSYLDGQAQKEFIAWLVKGC (not fully specified) [triple agonist of SEQ ID NO: 2]
In vitro activity (%) compared with native peptide, vs GLP-1 (human GLP-1 receptor): 5.9%
In vitro activity (%) compared with native peptide, vs GIP (human GIP receptor): < 0.1%
In vitro activity (%) compared with native peptide, vs Glucagon (human GCG receptor): < 0.1%
